In article PMC6994640:

Target: CgIgR (native, oyster hemocytes) (Crassostrea gigas (endogenous in oyster hemocytes))
Assay: cross-linking

stoichiometry N: 2
Substance: CgIgR (native, oyster hemocytes) (receptor)
